Laboratory results: FireProtDB (doi:10.1021/bi00432a026)

Details: Aspergillus oryzae (strain ATCC 42149 / RIB 40), DSC, reversible: yes, whole UniProt chain shown; for denaturant m value / denaturant midpoint (higher = more stable) / unfolding free energy: Urea; for Tm / heat capacity change of unfolding / unfolding enthalpy (calorimetric): Thermal
[1] = pH 2.8, 27.75 °C, glycine 30 mM

B1: Guanyl-specific ribonuclease T1 wild type, P00651 (protein)
chain: MMYSKLLTLTTLLLPTALALPSLVERACDYTCGSNCYSSSDVSTAQAAGYQLHEDGETVGSNSYPHKYNNYEGFDFSVSSPYYEWPILSSGDVYSGGSPGADRVVFNENNQLAGVITHTGASGNNFVECT
- denaturant m value (pH 2.8, 17.1 °C, glycine 30 mM): 2.44 kcal/mol/M
- denaturant midpoint (higher = more stable) (pH 2.8, 17.1 °C, glycine 30 mM): 2.25 M
- unfolding free energy (pH 2.8, 17.1 °C, glycine 30 mM): 22.6 kJ/mol
- denaturant m value (pH 2.8, 21.1 °C, glycine 30 mM): 2.43 kcal/mol/M
- denaturant midpoint (higher = more stable) (pH 2.8, 21.1 °C, glycine 30 mM): 2.02 M
- unfolding free energy (pH 2.8, 21.1 °C, glycine 30 mM): 20.3 kJ/mol
- denaturant m value (pH 2.8, 24.9 °C, glycine 30 mM): 2.33 kcal/mol/M
- denaturant midpoint (higher = more stable) (pH 2.8, 24.9 °C, glycine 30 mM): 1.8 M
- unfolding free energy (pH 2.8, 24.9 °C, glycine 30 mM): 18.1 kJ/mol
- denaturant m value [1]: 2.45 kcal/mol/M
- denaturant midpoint (higher = more stable) [1]: 1.44 M
- unfolding free energy [1]: 14.6 kJ/mol
- Tm (pH 2.8, glycine 30 mM): 42.6 °C
- heat capacity change of unfolding (pH 2.8, glycine 30 mM): 2.2 kcal/mol/K
- unfolding enthalpy (calorimetric) (pH 2.8, glycine 30 mM): 397 kJ/mol
- denaturant m value (pH 5.95, 19.05 °C, MES 30 mM): 1.19 kcal/mol/M
- denaturant midpoint (higher = more stable) (pH 5.95, 19.05 °C, MES 30 mM): 6.64 M
- unfolding free energy (pH 5.95, 19.05 °C, MES 30 mM): 33.2 kJ/mol
- denaturant m value (pH 5.95, 22 °C, MES 30 mM): 1.19 kcal/mol/M
- denaturant midpoint (higher = more stable) (pH 5.95, 22 °C, MES 30 mM): 6.32 M
- unfolding free energy (pH 5.95, 22 °C, MES 30 mM): 31.6 kJ/mol
- denaturant m value (pH 5.95, 29.1 °C, MES 30 mM): 1.18 kcal/mol/M
- denaturant midpoint (higher = more stable) (pH 5.95, 29.1 °C, MES 30 mM): 5.45 M
- unfolding free energy (pH 5.95, 29.1 °C, MES 30 mM): 27.2 kJ/mol
- Tm (pH 5.95, MES 30 mM): 52.8 °C
- heat capacity change of unfolding (pH 5.95, MES 30 mM): 1.49 kcal/mol/K
- unfolding enthalpy (calorimetric) (pH 5.95, MES 30 mM): 436 kJ/mol
- denaturant m value (pH 7, 19.2 °C, MOPS 30 mM): 1.21 kcal/mol/M
- denaturant midpoint (higher = more stable) (pH 7, 19.2 °C, MOPS 30 mM): 5.26 M
- unfolding free energy (pH 7, 19.2 °C, MOPS 30 mM): 26.3 kJ/mol
- denaturant m value (pH 7, 21.1 °C, MOPS 30 mM): 1.1 kcal/mol/M
- denaturant midpoint (higher = more stable) (pH 7, 21.1 °C, MOPS 30 mM): 4.98 M
- unfolding free energy (pH 7, 21.1 °C, MOPS 30 mM): 24.9 kJ/mol
- denaturant m value (pH 7, 23.05 °C, MOPS 30 mM): 1.2 kcal/mol/M
- denaturant midpoint (higher = more stable) (pH 7, 23.05 °C, MOPS 30 mM): 4.86 M
- unfolding free energy (pH 7, 23.05 °C, MOPS 30 mM): 24.3 kJ/mol
- denaturant m value (pH 7, 25 °C, MOPS 30 mM): 1.2 kcal/mol/M
- denaturant midpoint (higher = more stable) (pH 7, 25 °C, MOPS 30 mM): 4.58 M
- unfolding free energy (pH 7, 25 °C, MOPS 30 mM): 22.9 kJ/mol
- denaturant m value (pH 7, 27 °C, MOPS 30 mM): 1.2 kcal/mol/M
- denaturant midpoint (higher = more stable) (pH 7, 27 °C, MOPS 30 mM): 4.14 M
- unfolding free energy (pH 7, 27 °C, MOPS 30 mM): 20.7 kJ/mol
- denaturant m value (pH 7, 29 °C, MOPS 30 mM): 1.27 kcal/mol/M
- denaturant midpoint (higher = more stable) (pH 7, 29 °C, MOPS 30 mM): 3.93 M
- unfolding free energy (pH 7, 29 °C, MOPS 30 mM): 19.7 kJ/mol
- Tm (pH 7, MOPS 30 mM): 48.2 °C
- heat capacity change of unfolding (pH 7, MOPS 30 mM): 1.72 kcal/mol/K
- unfolding enthalpy (calorimetric) (pH 7, MOPS 30 mM): 398 kJ/mol
- denaturant m value (pH 7.9, 19.05 °C, HEPPSO 30 mM): 1.11 kcal/mol/M
- denaturant midpoint (higher = more stable) (pH 7.9, 19.05 °C, HEPPSO 30 mM): 4.19 M
- unfolding free energy (pH 7.9, 19.05 °C, HEPPSO 30 mM): 21 kJ/mol
- denaturant m value (pH 7.9, 22 °C, HEPPSO 30 mM): 1.25 kcal/mol/M
- denaturant midpoint (higher = more stable) (pH 7.9, 22 °C, HEPPSO 30 mM): 3.91 M
- unfolding free energy (pH 7.9, 22 °C, HEPPSO 30 mM): 19.5 kJ/mol
- denaturant m value (pH 7.9, 25 °C, HEPPSO 30 mM): 1.28 kcal/mol/M
- denaturant midpoint (higher = more stable) (pH 7.9, 25 °C, HEPPSO 30 mM): 3.44 M
- unfolding free energy (pH 7.9, 25 °C, HEPPSO 30 mM): 17.2 kJ/mol
- denaturant m value (pH 7.9, 28.95 °C, HEPPSO 30 mM): 1.19 kcal/mol/M
- denaturant midpoint (higher = more stable) (pH 7.9, 28.95 °C, HEPPSO 30 mM): 2.95 M
- unfolding free energy (pH 7.9, 28.95 °C, HEPPSO 30 mM): 14.7 kJ/mol
- Tm (pH 7.9, HEPPSO 30 mM): 43.3 °C
- heat capacity change of unfolding (pH 7.9, HEPPSO 30 mM): 1.65 kcal/mol/K
- unfolding enthalpy (calorimetric) (pH 7.9, HEPPSO 30 mM): 364 kJ/mol
